According to the supplement of paper PMC10266784:

B1: library; numbered along this chain (parent)
chain: MAAAAAAAAEQQSSNGPVKKSMREKAVERRSVNKEHNSNFKAGYIPIDEDRLHKTGLRGRKGNLAICVIILLFILAVINLIITLVIWAVIRIGPNGCDSMEFHESGLLRFKQVSDMGVIHPLYKSTVGGRRNENLVITGNNQPIVFQQGTTKLSVENNKTSITSDIGMQFFDPRTQNILFSTDYETHEFHLPSGVKSLNVQKASTERITSNATSDLNIKVDGRAIVRGNEGVFIMGKTIEFHMGGNMELKAENSIILNGSVMVSTTRLPSSSSGDQLGSGDWVRYKLCMCADGTLFKVQVTSQNMGCQISDNPCGNTH

Variants of: B1
Test: SGCB cell-surface expression functional score (HA stain, bin4 vs bin1, normalised to synonymous) (log10 ratio); higher = more cell-surface SGCB (functional)
Summary of the method: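 Codon-saturation libraries of HA-tagged, YFP-fused human beta-sarcoglycan were lentivirally transduced at MOI <0.1 into HEK293 cells stably expressing alpha-, gamma- and delta-sarcoglycan. YFP-positive cells were sorted after 72 hours, grown 5–7 days, stained on ice with Alexa Fluor 647 anti-HA, fixed, sorted into four 5% intensity bins and amplicon-sequenced. The functional score is the log ratio of highest-bin to lowest-bin variant frequency, taken as the median over codons and duplicate transductions. Synonymous variants were scaled per section to mean 0, SD 0.5.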

SGCB cell-surface expression functional score (log10) of substitutions, site by site:
I162: A -0.52 | V -0.49 | E -0.89 | N -0.83 | T -1.07 | F -0.81 | H -1.02 | C -1.23 | L -0.6 | M 0.23 | G -1.34 | K -1.11 | R -1.34 | W 0.05 | D -1.31 | Q -0.98 | S -1.09 | P -1.25 | Y -1.43
I166: G -0.41 | P -1.11 | M -0.16 | A -0.49 | N -0.78 | D -1.32 | F 0.57 | C 0.54 | H -0.1 | E 0.76 | L -0.38 | K -0.2
N157: Y 0.04 | R 0.01 | S -0.08 | Q 0.38 | W 0.34 | T -0.05 | P 0.01 | V 0.48
T163: K -0.3 | D -1.08 | H -0.2 | F -0.27 | Y 0.58 | L -0.56 | A -0.32 | G -1.5 | M -1.06 | P -1.3 | I 0.32 | S -1.01 | Q 0.21 | R -0.05 | V 0.25 | C -0.72 | E -0.38
S164: W -2.58 | M -2.05 | N -0.99 | D 0.11 | A -0.39 | T -0.69 | R -0.91 | E -0.83 | P -1.87 | I -1.26 | F -1.08 | V -0.34 | C -0.79 | H -1.56 | L -1.91 | Y -1.05 | G -0.13 | Q -0.96 | K -0.97
T160: V 0.03 | R -1.29 | L 0.17 | Q -1.26 | W -0.95 | A -0.29 | E -1.3 | K -2.03 | M -1.02 | H -0.01 | F -0.15 | I 0.64 | P -1.28 | N -0.8 | G -1.29 | C -0.14 | Y -1.13 | D -1.29 | S -0.5
K159: F -0.25 | P -1.13 | H -0.05 | C -0.02 | E -0.7 | S -0.32 | D -1.02 | Y -0.79 | I 0 | L 0.31 | G 0.43 | A -0.02 | M -0.28 | Q -0.09 | N -0.03 | W -0.05 | R -0.48 | T -0.28 | V -0.09
S161: E 0.42 | D -0.8 | F -0.36 | C -0.11 | P -1.15 | L 0.12 | G 0.01 | K -0.33 | V -0.12 | A 0.29 | I -0.06 | H -0.26 | W -0.98 | M -0.34 | Y -0.18 | T 0.3 | N -0.84 | Q 0.14 | R 0.02
D165: G -0.11 | T 0.73 | P 0.58 | H 0.61 | K -0.75 | R 0.2 | Y -0.38 | A 0.17 | V 0.5 | L -0.58 | N -0.35 | F 0.07 | E 0.02 | S -0.01 | I 0.19 | Q -1.09
N158: Q 0.06 | H -0.2 | P -0.76 | G -0.06 | W -0.42 | E -0.02 | S 0.15 | L -0.11 | T 0.18 | I -0.21 | F -0.06 | D 0.02 | Y -0.05 | M -0.12 | R -0.6 | C 0 | K -0.26 | A -0.1 | V -0.44
